Laboratory results taken from publication PMC11406360, “The enzymatic oxygen sensor cysteamine dioxygenase binds its protein substrates through their N-termini” (The Journal of Biological Chemistry, 2024).

B1: native RGS5 peptide (first 14 amino acids of the methionine excised N terminus of RGS5) [human] / 2-aminoethanethiol (cysteamine) dioxygenase (ADO), biotinylated, for SPR [modified: biotin (N terminally biotinylated; 0.2 mM biotin added at … (parent complex)
chain 1: CKGLAALPHSCLER
chain 2: MPRDNMASLIQRIARQACLTFRGSGGGRGASDRDAASGPEAPMQPGFPENLSKLKSLLTQLRAEDLNIAPRKATLQPLPPNLPPVTYMHIYETDGFSLGVFLLKSGTSIPLHDHPGMHGMLKVLYGTVRISCMDKLDAGGGQRPRALPPEQQFEPPLQPREREAVRPGVLRSRAEYTEASGPCILTPHRDNLHQIDAVEGPAAFLDILAPPYDPDDGRDCHYYRVLEPVRPKEASSSACDLPREVWLLETPQADDFWCEGEPYPGPKVFP

Variants of: B1
Experiment: SPR; parent: 290 nM

Variant | Kd [nM]
chain 1 L7A | 310
chain 1 E13A | 260
chain 1 H9A | 240
chain 1 C11A | 300
chain 1 L4A | 220

The remaining lines, values ahead:

Kd [nM] | Variant
260 | chain 1 L12A
210 | chain 1 R14A
350 | chain 1 S10A
250 | chain 1 P8A
